Measured values published in patent US20240209334A1, “SMALL-MOLECULE-ACTIVATED GLYCAN MODIFYING ENZYMES AND USES THEREOF” (President and Fellows of Harvard College, priority 2022, published 2024).

B1: OGA-intein(C181): miniOGA with the 4-HT-responsive evolved intein inserted at C181 (protein)
chain: MEQKLISEEDLAIAMVQKESQATLEERESELSSNPAASAGASLEPPAAPAPGEDNPAGAGGAAVAGAAGGARRFLCGVVEGFYGRPWVMEQRKELFRRLQKWELNTYLYAPKDDYKHRMFWREMYSVEEAEQLMTLISAAREYEIEFIYAISPGLDITFSNPKEVSTLKRKLDQVSQFGCRSFALLFDDIDHNMCLAEGTRIFDPVTGTTHRIEDVVDGRKPIHVVAAAKDGTLLARPVVSWFDQGTRDVIGLRIAGGAIVWATPDHKVLTEYGWRAAGELRKGDRVAGPGGSGNSLALSLTADQMVSALLDAEPPILYSEYDPTSPFSEASMMGLLTNLADRELVHMINWAKRVPGFVDLTLHDQAHLLERAWLEILMIGLVWRSMEHPGKLLFAPNLLLDRNQGKCVEGMVEIFDMLLATSSRFRMMNLQGEEFVCLKSIILLNSGVYTFLSSTLKSLEEKDHIHRALDKITDTLIHLMAKAGLTLQQQHQRLAQLLLILSHIRHMSNKGMEHLYSMKYKNVVPLYDLLLEMLDAHRLHAGGSGASRVQAFADALDDKFLHDMLAEGLRYSVIREVLPTRRARTFDLEVEELHTLVAEGVVVHNCAADKEVFSSFAHAQVSITNEIYQYLGEPETFLFCPTEYCGTFCYPNVSQSPYLRTVGEKLLPGIEVLWTGPKVVSKEIPVESIEEVSKIIKRAPVIWDNIHANDYDQKRLFLGPYKGRSTELIPRLKGVLTNPNCEFEANYVAIHTLATWYKSNMNGVRKDVVMTDSEDSTVSIQIKLENEGSDEDIETDVLYSPQMALKLALTEWLQEFGVPHQYSSRGSGSGSGSGSGSGSGEKPLYTAEPVTLEDLQLLADLFYLPYEHGPKGAQMLREFQWLRANSSVVSVNCKGKDSEKIEEWRSRAAKFEEMCGLVMGMFTRLSNCANRTILYDMYSYVWDIKSIMSMVKSFVQWLGCRSHSSAQFLIGDQEPWAFRGGLAGEFQRLLPIDGANDLFFQPP

Columns and labels:
[1] = system: O-GlcNAcylated proteins in HEK293T cells; assay: Quantitative proteomics after enrichment for O-GlcNAc; assay type: cell-based, Homo sapiens; conditions: 25 μM OSMI-4b for 10 hours
Protocol: To further assess the spatial deglycosylation mediated by these subcellularly localized OGA-intein variants, quantitative proteomics was performed following enrichment for O-GlcNAc (38) on cell lysates after expression of C181-NLS with 4-HT treatment for 2 hours and 24 hours, respectively, or the OGT inhibitor OSMI-4b (3) for comparison (FIG. 4E and FIGS. 12A, 12B, 12C).
Chemoenzymatic labeling of O-GlcNAcylated proteins. Purification of GalT1 (Y289L) enzyme and labeling of O-GlcNAcylated proteins with GalNAz were performed according to the procedure of Hsich-Wilson and co-workers (51). Briefly, cell samples in 15-cm dishes were harvested and washed by PBS once. Cells were lysed in 2% SDS/PBS by heating at 95° C. for 5 minutes, followed by sonication. Protein concentrations were determined and then subjected to reduction and alkylation using 25 mM DTT at 95° C. for 5 minutes and 50 mM iodoacetamide at room temperature for 1 hour, respectively. Proteins were precipitated using the methanol/chloroform mix (aqueous phase: CH3OH:CHCl3=4:4:1) and resuspended in 1% SDS, 20 mM HEPES (pH 7.9) buffer with a concentration of 3.75 mg/mL. […]
Quantitative chemical proteomics. […]

Nup62 [2] = assay: Screen of intein insertion sites: OGA-intein variants co-expressed with Nup62 in HEK293T cells, immunoblot; assay type: cell-based
Source text: OGA is a multi-domain hydrolase responsible for O-GlcNAc removal in mammalian cells. Based on the reported crystal structures of OGA (27-29), the essential domains of the long splice variant of OGA were identified, and it was confirmed that the HAT domain is not required for its deglycosidase activity in cells (13). In addition, replacement of the disordered region between the catalytic domain and the stalk domain with a glycine-serine flexible linker (GS-linker) maintained its activity in live cells in the absence of the C-terminal HAT domain (13, 28). This variant, termed miniOGA, was selected as the initial template for engineering with an intein due to its smaller size and simpler structure (FIG. 2A). […] Inserting this evolved 4-HT-responsive intein into a site that abolishes miniOGA activity until protein splicing has taken place could result in a conditionally active OGA for O-GlcNAc removal under the control of 4-HT. As intein splicing would leave behind a single cysteine residue (22), and to minimize alterations on OGA protein sequence, cysteine residues across different structural domains and the GS-linker at miniOGA were selected as the candidate insertion sites, thus generating OGA-intein fusion constructs for nine positions in total (C62, C166, C181, C220, C316, C596, C631, C663, and the GS-linker) (FIG. 2A). The nine OGA-intein variants were transiently expressed in HEK293T cells together with a model glycoprotein Nup62. Cells were treated with or without 1 μM 4-HT for 24 hours after transfection. OGA-intein variants were then detected by the Myc tag to verify the expected splicing, and their enzymatic activities were evaluated by detection of O-GlcNAc on the substrate Nup62 following immunoprecipitation.
(§1) Immunoprecipitation and Immunoblot assays. […]
(§2) For immunoblotting analysis, proteins were transferred to a nitrocellulose membrane using an iBlot system (Invitrogen). […] Immunoblot images were captured using Azure Imager C600 and analyzed with Fiji ImageJ for converting all IR fluorescence western blot images to grayscale images.

Nup62 [3] = assay: Spatial deglycosylation of cytoplasmic Nup62 by OGA-intein(C181) variants in HEK293T cells; assay type: cell-based; conditions: cytoplasmic Nup62 co-expressed
Protocol: (§3) Next, it was assessed whether these OGA-intein(C181) variants enable selective spatial deglycosylation in live cells. As O-GlcNAc affects the subcellular localization of many proteins (37), Nup62 was used as a model cytoplasmic substrate, which was previously primarily localized in the cytoplasm when transiently overexpressed in HEK293T cells independent of the O-GlcNAcylation state (13) (FIGS. 11A, 11B). Nup62 was co-expressed with three OGA-intein(C181) variants (C181-WT, C181-NLS, and C181-NES) in HEK293T cells, and Nup62 was enriched for O-GlcNAc measurement. […] Next, Nup62 was localized to the nucleus by attachment to an NLS tag (Nup62-NLS), and a similar coexpression and 4-HT-triggered activation was performed with OGA-intein(C181) variants. […] The fluorescent intensity of OGA-intein variants also show a strong correlation to the localization of Nup62, indicating the desired subcellular distribution (FIGS. 11A-C).
as §1, §2

Nup62-NLS = assay: Spatial deglycosylation of nuclear Nup62-NLS by OGA-intein(C181) variants in HEK293T cells; assay type: cell-based; conditions: nuclear Nup62-NLS co-expressed
Protocol: as §3, §1, §2

[4] = system: global O-GlcNAc level in MCF-7 cells; assay: Immunoblot of global O-GlcNAc level and splicing in MCF-7 stable cell lines; assay type: cell-based, human; conditions: MCF-7 cells stably expressing the variant
Source text: In addition to serving as an activator for intein splicing, 4-HT is also known as the active metabolite of tamoxifen, an FDA-approved drug for treating breast cancer patients. Breast cancer cells also have elevated OGT expression (39) and decreased levels of OGA (40, 41), resulting in elevated O-GlcNAcylation in the proteome. OGT is usually required for tumor growth and metastasis (39), and low OGA expression is correlated with poor survival in breast cancer patients (FIG. 13). The ER positive breast cancer-derived MCF-7 cell line is sensitive to tamoxifen and 4-HT, resulting in suppression of cell proliferation, yet drug resistance occurs after long-term treatment (42). Previous studies also show evidence that upregulation of O-GlcNAcylation protects MCF-7 cells from tamoxifen-induced cell death (43). To determine if reduction of O-GlcNAc sensitized MCF-7 cells to 4-HT treatment, it was assessed whether 4-HT induced inhibition of breast cancer cell proliferation and OGA-intein activation worked synergistically to accelerate cell death (FIG. 5A). […] Next, these two cell lines were treated with 4-HT at increasing concentrations, and cell viability was measured after 48 hours. […] Given that 4-HT promoted MCF-7 cell death through apoptosis (43), the apoptosis of these cells under 4-HT treatment was further analyzed through flow cytometry analyses following Annexin V and DAPI staining. […]

Row | Molecule | change of O-GlcNAc on nuclear and cytoplasmic proteins [1] | intein splicing / spliced product on 4-HT treatment (Nup62 [2]; 1 μM 4-HT for 24 hours, Myc tag detection) | deglycosylation activity in the presence of 4-HT (Nup62 [2]; co-expressed Nup62, 1 μM 4-HT for 24 hours) | OGA activity (deglycosylation of Nup62) in the absence of 4-HT (Nup62 [2]; co-expressed Nup62, without 4-HT) | removal of O-GlcNAc from Nup62 after 4-HT-triggered activation (Nup62 [3]) | 4-HT-induced deglycosylation of Nup62-NLS (Nup62-NLS) | global O-GlcNAc level after adding 4-HT [4]
1 | CCOC(=O)CN(Cc1cccs1)C(=O)[C@H](NS(=O)(=O)c1cc2ccc(=O)[nH]c2cc1Cl)c1ccccc1OC [OSMI-4b] | mild reduction of O-GlcNAc on both nuclear and cytoplasmic proteins |  |  |  |  |  | 
2 | B1 |  | yielding the active spliced product | high deglycosylation activity | little activity | removed O-GlcNAc from Nup62 | 4-HT-induced deglycosylation | decreased global O-GlcNAc level
